Measurements reported in article PMC3120833, “The p53 Tumor Suppressor Is Stabilized by Inhibitor of Growth 1 (ING1) by Blocking Polyubiquitination” (PLoS ONE, 2011).

Molecular target: T1, FLAG-ubiquitin, recombinant (UniProt P0CG47 1-76)
T1 construct: ubiquitin, the cut product of a ubiquitin precursor; source: bought: Boston Biochem
Assay: SPR; Biacore 3000, 25°C; FLAG-ubiquitin immobilised on CM-5 chip by amine cross-linking; increasing amounts of GST-ING1 injected; blank reference subtracted; three experiments; steady-state affinity and kinetic data
Details: both partners purified

Kd: ~100 nM
B1: GST-ING1b, full length, recombinant (natural protein, human, UniProt Q9UK53-2 1-279, looked up)
chain: MLSPANGEQLHLVNYVEDYLDSIESLPFDLQRNVSLMREIDAKYQEILKELDECYERFSRETDGAQKRRMLHCVQRALIRSQELGDEKIQIVSQMVELVENRTRQVDSHVELFEAQQELGDTAGNSGKAGADRPKGEAAAQADKPNSKRSRRQRNNENRENASSNHDHDDGASGTPKEKKAKTSKKKKRSKAKAEREASPADLPIDPNEPTYCLCNQVSYGEMIGCDNDECPIEWFHFSCVGLNHKPKGKWYCPKCRGENEKTMDKALEKSKKERAYNR
notes: ING1 isoform p33ING1b, full length
